Source: patent US6623738 (University of California, dated 2003)

Experiments:
[1] = target: T1, AP fusion with Drosophila D-Sema II (Drosophila, UniProt Q24323 26-724); test: AP fusion binding to transfected COS cells
T1 construct: also called Drosophila Sema II; not shown: alkaline phosphatase (AP) reporter
T1 sequence (looked up): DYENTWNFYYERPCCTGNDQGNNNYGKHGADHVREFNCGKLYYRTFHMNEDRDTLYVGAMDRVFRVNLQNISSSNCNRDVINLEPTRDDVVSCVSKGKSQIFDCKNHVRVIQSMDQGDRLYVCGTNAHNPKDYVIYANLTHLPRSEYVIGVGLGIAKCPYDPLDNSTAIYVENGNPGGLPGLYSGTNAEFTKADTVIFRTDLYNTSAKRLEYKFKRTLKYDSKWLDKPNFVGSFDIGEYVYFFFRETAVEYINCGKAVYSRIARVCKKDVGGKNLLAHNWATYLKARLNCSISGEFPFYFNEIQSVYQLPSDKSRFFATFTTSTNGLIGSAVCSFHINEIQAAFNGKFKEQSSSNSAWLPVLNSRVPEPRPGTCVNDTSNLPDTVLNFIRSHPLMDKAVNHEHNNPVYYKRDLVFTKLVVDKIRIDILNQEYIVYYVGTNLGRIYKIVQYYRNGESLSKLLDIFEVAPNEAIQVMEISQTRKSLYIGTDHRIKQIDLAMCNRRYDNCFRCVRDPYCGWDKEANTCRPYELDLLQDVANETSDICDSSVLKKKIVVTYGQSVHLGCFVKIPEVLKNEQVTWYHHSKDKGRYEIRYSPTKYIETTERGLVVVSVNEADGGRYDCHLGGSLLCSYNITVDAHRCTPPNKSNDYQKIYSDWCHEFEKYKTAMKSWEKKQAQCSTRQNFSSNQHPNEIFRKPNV

[2] = target: T2, Sema E-AP fusion protein (mouse Sema E fused to alkaline phosphatase) (mouse, UniProt Q62181 21-751); test: AP fusion binding to transfected COS cells
T2 construct: written as in the name; Partially purified conditioned medium; not shown: secreted alkaline phosphatase of vector APtag-4
T2 sequence (looked up): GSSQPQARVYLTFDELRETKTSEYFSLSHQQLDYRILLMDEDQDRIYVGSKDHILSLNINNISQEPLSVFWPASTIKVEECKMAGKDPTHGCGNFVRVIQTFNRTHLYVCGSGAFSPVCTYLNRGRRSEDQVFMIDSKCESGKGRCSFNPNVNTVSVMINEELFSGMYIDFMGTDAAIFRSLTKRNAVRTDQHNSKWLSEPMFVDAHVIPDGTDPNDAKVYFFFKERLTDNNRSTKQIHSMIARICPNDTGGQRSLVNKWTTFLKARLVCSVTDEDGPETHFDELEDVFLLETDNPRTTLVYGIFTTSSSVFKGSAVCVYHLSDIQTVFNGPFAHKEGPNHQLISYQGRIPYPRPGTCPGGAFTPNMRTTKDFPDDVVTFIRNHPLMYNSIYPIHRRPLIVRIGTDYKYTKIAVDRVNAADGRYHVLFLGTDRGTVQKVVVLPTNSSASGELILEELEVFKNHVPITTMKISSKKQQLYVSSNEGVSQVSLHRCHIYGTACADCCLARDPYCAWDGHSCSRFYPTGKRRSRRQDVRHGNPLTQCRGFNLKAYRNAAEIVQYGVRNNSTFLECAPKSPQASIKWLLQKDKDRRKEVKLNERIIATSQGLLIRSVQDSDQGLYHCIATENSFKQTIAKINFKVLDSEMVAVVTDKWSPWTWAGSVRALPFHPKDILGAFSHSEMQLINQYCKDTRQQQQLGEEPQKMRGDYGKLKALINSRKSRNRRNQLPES

[3] = target: T3, AP fusion with the ectodomain of Sema VIa (UniProt O35464 19-649); test: AP fusion binding to transfected COS cells
T3 construct: extracellular domain; also called Sema VIa ectodomain; not shown: alkaline phosphatase (AP) reporter
T3 sequence (looked up): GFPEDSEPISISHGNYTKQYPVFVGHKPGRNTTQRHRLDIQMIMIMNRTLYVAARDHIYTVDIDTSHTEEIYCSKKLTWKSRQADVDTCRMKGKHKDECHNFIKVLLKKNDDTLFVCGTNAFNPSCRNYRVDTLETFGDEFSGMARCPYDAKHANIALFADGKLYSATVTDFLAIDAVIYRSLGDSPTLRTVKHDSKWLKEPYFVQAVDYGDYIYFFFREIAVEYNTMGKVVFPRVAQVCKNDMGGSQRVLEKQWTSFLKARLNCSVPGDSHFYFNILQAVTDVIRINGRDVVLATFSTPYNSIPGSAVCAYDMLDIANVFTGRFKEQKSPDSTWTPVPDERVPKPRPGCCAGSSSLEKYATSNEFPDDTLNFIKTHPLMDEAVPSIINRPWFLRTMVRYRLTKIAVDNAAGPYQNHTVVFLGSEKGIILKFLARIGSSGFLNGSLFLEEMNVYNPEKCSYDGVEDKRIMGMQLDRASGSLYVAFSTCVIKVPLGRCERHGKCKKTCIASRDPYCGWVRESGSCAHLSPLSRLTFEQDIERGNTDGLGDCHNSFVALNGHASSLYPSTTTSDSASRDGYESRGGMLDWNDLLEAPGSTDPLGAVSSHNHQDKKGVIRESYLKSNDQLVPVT

[4] = target: T4, alkaline phosphatase (AP) alone (UniProt P05187 23-511); test: AP histochemistry on transfected COS cells
T4 construct: Control protein; also called alkaline phosphatase protein
T4 sequence (P05187 23-511 limits assumed): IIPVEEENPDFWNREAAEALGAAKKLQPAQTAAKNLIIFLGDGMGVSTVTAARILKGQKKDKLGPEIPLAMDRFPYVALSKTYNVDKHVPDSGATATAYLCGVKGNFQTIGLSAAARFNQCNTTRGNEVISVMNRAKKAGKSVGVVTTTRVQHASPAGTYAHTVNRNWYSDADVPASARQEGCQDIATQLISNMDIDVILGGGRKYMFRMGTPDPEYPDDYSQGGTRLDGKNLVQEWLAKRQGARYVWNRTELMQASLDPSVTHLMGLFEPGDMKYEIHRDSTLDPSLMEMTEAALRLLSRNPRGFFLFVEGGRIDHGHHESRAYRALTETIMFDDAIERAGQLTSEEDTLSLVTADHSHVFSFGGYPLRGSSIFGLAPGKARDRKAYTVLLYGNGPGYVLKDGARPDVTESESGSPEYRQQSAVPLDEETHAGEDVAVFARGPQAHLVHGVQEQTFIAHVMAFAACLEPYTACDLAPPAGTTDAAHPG

B1: mouse neuropilin-2(b5), myc-tagged, expressed in COS-7 cells (receptor, not shown: small tags and cut ends)
chain: RSQQDPPCGGRPNSKDAGYITSPGYPQDYPSHQNCEWIVYAPEPNQKIVLNFNPHFEIEKHDCKYDFIEIRDGDSESADLLGKHCGNIAPPTIISSGSVLYIKFTSDYARQGAGFSLRYEIFKTGSEDCSKNFTSPNGTIESPGFPEKYPHNLDCTFTILAKPRMEIILQFLTFDLEHDPLQVGEGDCKYDWLDIWDGIPHVGPLIGKYCGTKTPSKLRSSTGILSLTFHTDMAVAKDGFSARYYLIHQEPPENFQCNVPLGMESGRIANEQISASSTFSDGRWTPQQSRLHGDDNGWTPNLDSNKEYLQVDLRFLTMLTAIATQGAISRETQKGYYVKSYKLEVSTNGEDWMVYRHGKNHKIFQANNDATEVVLNKLHMPLLTRFIRIRPQTWHLGIALRLELFGCRVTDAPCSNMLGMLSGLIADTQISASSTREYLWSPSAARLVSSRSGWFPRNPQAQPGEEWLQVDLGTPKTVKGVIIQGARGGDSITAVEARAFVRKFKVSYSLNGKDWEYIQDPRTQQTKLFEGNMHYDTPDIRRFDPVPAQYVRVYPERWSPAGIGMRLEVLGCDWTDSKPTVETLGPTVKSEETTTPYPMDEDATECGENCSFEDDKDLQLPSGFNCNFDFPEETCGWVYDHAKWLRSTWISSANPNDRTFPDDKNFLKLQSDGRREGQYGRLISPPVHLPRSPVCMEFQYQAMGGHGVALQVVREASQESKLLWVIREDQGSEWKHGRIILPSYDMEYQIVFEGVIGKGRSGEISIDDIRISTDVPLENCMEPISAFAGEDFKGGTLPPGTEPTVDTVPVQPIPAYWYYVMAAGGAVLVLASVVLALVLHYHRFRYAAKKTDHSITYKTSHYTNGAPLAVEPTLTIKLEQERGSHC
notes: also called b5 isoform of neuropilin-2; SR2(b)5
B1: no binding [1]; binds [2]; no binding [3]. B1: no binding [4].
